Test results as given in PMC10079672, “Construction of a synthetic metabolic pathway for biosynthesis of 2,4-dihydroxybutyric acid from ethylene glycol” (Nature Communications, 2023).

Tests used:
Pc.TadH = target: T1, Pc.TadH (Trinickia caryophylli, UniProt A0A1X7DDC2); experiment: dehydrogenase activity, microplate; assay type: biochemical; conditions: NAD+ or NADP+; 37 °C
T1 construct: gene SAMN06295900_10348; N-terminal His tag (pET28a)
T1 sequence (A0A1X7DDC2 1-334): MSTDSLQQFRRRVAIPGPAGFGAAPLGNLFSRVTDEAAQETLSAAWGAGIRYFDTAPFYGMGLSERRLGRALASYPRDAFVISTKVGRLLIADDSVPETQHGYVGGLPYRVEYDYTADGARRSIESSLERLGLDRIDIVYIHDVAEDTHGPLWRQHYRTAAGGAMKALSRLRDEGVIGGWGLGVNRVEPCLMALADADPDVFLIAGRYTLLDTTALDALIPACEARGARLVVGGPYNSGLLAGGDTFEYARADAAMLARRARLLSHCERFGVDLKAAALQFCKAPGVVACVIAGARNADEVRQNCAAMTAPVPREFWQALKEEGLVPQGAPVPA

Sc.Ara1 = target: T2, Sc.Ara1 (Saccharomyces cerevisiae, UniProt P38115); experiment: dehydrogenase activity, microplate; assay type: biochemical; conditions: NAD+ or NADP+, 10 mM cofactor, 10 mM sugar; 37 °C
T2 construct: N-terminal His tag (pET28a)

Bm.Fdh = target: T3, Bm.Fdh (Burkholderia multivorans, UniProt A0A0H3KNE7); experiment: dehydrogenase activity, microplate; assay type: biochemical; conditions: NAD+ or NADP+, 10 mM cofactor, 10 mM sugar; 37 °C
T3 construct: gene BMULJ_04919; N-terminal His tag (pET28a)
T3 sequence (A0A0H3KNE7 whole entry): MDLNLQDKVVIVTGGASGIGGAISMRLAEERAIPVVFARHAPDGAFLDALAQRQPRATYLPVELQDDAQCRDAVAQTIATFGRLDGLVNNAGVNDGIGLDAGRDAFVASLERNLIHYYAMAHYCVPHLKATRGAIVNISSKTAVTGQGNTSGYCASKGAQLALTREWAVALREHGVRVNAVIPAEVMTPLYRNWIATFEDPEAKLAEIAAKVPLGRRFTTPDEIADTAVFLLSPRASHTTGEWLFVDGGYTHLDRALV

Go.Adh = target: T4, Go.Adh (Gluconobacter oxydans, UniProt Q5FU50); experiment: ethylene glycol dehydrogenase activity in protein extract; empty-plasmid extract inactive; assay type: biochemical; conditions: 50 mM ethylene glycol; NAD+
T4 construct: gene GOX0313; expressed from pEXT20 in E. coli TW64; protein extract
T4 sequence (Q5FU50 1-343): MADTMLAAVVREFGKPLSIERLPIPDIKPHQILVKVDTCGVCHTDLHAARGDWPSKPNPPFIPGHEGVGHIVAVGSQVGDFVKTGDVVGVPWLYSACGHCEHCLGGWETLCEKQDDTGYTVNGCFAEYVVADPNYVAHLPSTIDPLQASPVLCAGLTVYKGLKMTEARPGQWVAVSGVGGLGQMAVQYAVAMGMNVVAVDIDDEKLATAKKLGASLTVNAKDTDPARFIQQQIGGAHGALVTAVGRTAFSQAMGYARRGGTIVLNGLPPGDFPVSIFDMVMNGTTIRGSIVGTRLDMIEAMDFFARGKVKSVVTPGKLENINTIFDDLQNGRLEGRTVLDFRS

Ec.FucO = target: T5, Ec.FucO (Escherichia coli, UniProt P0A9S1); experiment: as above; assay type: biochemical; conditions: 50 mM ethylene glycol; NAD+
T5 construct: expressed from pEXT20 in E. coli TW64; protein extract
T5 sequence (P0A9S1 1-382): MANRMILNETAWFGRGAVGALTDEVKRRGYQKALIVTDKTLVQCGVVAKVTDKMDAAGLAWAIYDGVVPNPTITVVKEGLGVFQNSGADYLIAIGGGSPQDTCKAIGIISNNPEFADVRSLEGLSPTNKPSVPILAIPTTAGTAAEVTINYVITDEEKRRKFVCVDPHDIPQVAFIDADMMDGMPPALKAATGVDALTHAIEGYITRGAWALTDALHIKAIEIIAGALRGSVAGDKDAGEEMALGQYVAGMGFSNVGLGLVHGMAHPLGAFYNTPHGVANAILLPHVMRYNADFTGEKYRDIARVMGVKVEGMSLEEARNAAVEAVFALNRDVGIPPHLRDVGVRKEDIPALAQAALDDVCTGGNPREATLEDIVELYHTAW

Hh.AraD = tested on: T6, Hh.AraD; conditions: 37 °C
T6 construct: gene E2K99_19880

[1] = substrate: O=C1OC[C@@H](O)[C@@H]1O; experiment: lactonase kinetics, Michaelis-Menten fit; assay type: biochemical, Thermogutta terrifontis; conditions: 37 °C
[2] = substrate: C[C@H](O)[C@H]1OC(=O)[C@@H](O)[C@@H]1O; experiment: lactonase kinetics, Michaelis-Menten fit; assay type: biochemical, Thermogutta terrifontis; conditions: 37 °C
purified protein = substrate: O=C(O)[C@@H](O)[C@H](O)CO; experiment: purified protein; conditions: 37 °C

**Q.** Which results are given for O=C[C@@H](O)[C@H](O)CO [D-threose]?
**A.** specific activity (no saturation up to 50 mM) (Pc.TadH): Sc.Ara1, Pc.TadH and Bm.Fdh displayed measurable activity on D-threose; specific activity (Sc.Ara1): Sc.Ara1, Pc.TadH and Bm.Fdh displayed measurable activity on D-threose; specific activity (Bm.Fdh): Sc.Ara1, Pc.TadH and Bm.Fdh displayed measurable activity on D-threose

**Q.** What does the source list for OCCO [ethylene glycol]?
**A.** activity (Go.Adh): all candidate enzymes were active on EG; activity (Ec.FucO): all candidate enzymes were active on EG

**Q.** O=C(O)[C@@H](O)[C@H](O)CO [D-threonate] was tested. Which Km (Hh.AraD) did it give?
**A.** 1210 µM

B1: Tt.Lac11 (Thermogutta terrifontis) (protein)
chain: MRKLLGSSAIHVLSRRTGYGMYFLILALGVATQVVFGAEPSQNPSEKVAWIERADPGLDDLIAPDAQVEVLAEGFEWSEGPVWIPEGGYLLFSDVPKNTIYRWKEGQGIDIFLKPSGYTGFRERGGESGSNGLALDRQGRLLLCQHGDRRVARWEKGCFITLADQYEGKPLNSPNDLVVKSNGDIYFTDPPYGMTPEAQRDPNALGFCGVYRISADGKLTLLVRDMTRPNGIAFSPDEKTLYVAQSDPQRPLWMAFPVREDGTLGEGKVFFDAKPWQQSGLPGLPDGMKVDQKGNLFATGPGGVNIFRPDGTFLGRIRVKVPTANCAFGDDGSTLYITADMYLLRVKTKTKGLGF
notes: full-length with predicted N-terminal signal peptide; hexa-His tag (pET28a)
**Q.** B1 was tested. Which Km [1] did it give?
**A.** 2.92 (±0.13) mM

**Q.** And the Vmax [1]?
**A.** 1.76 µmol/min/mg

**Q.** And the Vmax/Km [1]?
**A.** 603 µL/min/mg

**Q.** And the Km [2]?
**A.** 0.84 (±0.06) × 10^-3 M

B2: Aa.AraD (Paracidovorax avenae ATCC 19860) (protein)
chain: MSTDALATQSLLILNDRDNVAVARTELGAGMELRLAGGEVLEVMATVPAGHKIALRPIAKGDAVLKYGQVIGAASTPIGAGEHVHVHNVEMGDSSPTHLVGRAYVPTDPVEQPATFMGYVRADGRVGTRNYIGVISSVNCSATVCKAIAQAFTGPALGAYPGVDGVVAITHGTGCGMSGEGEGIELLRRTLSGYIAHPNFAAVLVIGLGCEVNQVEGLTGRLPLPEGRVRTMTIQDAGGTREAIAQGIDIVRDMAAAASGARRTQVPASHLVVGLQCGGSDGYSGISANPVLGAAVDMLVRHGGTAILSETPEIYGAEHLLTARAASAEVAERLMARLAWWEAYTQRNGANMNNNPSPGNKAGGITTILEKSLGAVAKGGGSGLMDVVEYAQPVHSRGLVFMDTPGYDPVSATGQVAGGANLICFTTGRGSTYGCKPTPSLKLATNTALFRNMGMDMDFNAGDVVDGTLGIAQAGRHLFELMLATASGDRTLSETHGLGDNEFVPWQLGAVM
**Q.** What does the source list for B2?
**A.** Km (purified protein): 1.95 (±0.53) mM; Vmax (purified protein): 0.12 µmol/min/mg; Vmax/Km (purified protein): 62 µL/min/mg
